Legend:
[1] = target: microtubules polymerised from porcine brain tubulin (GMPCPP-stabilised microtubules and seeds, and dynamic microtubules elongating or nucleated from Atto647N- or Atto647-tubulin) (porcine (endogenous in pig brain)) (UniProt P02550); assay: TIRF microscopy; γTuRC nucleation assay: biotinylated mBFP-γTuRC immobilized on the surface, 10 µM Atto647-tubulin and 5-30 nM mScarlet-NuMA^FL; γTuRC-nucleated and spontaneously (solution-) nucleated microtubules compared; γTuRC microscopy buffer, 33°C
microtubules polymerised from porcine brain tubulin (GMPCPP-stabilised microtubules and seeds, and dynamic microtubules elongating or nucleated from Atto647N- or Atto647-tubulin) (porcine (endogenous in pig brain)), sequence (P02550 other isoform, or with tags, fused parts or gaps, chain 1 of 2): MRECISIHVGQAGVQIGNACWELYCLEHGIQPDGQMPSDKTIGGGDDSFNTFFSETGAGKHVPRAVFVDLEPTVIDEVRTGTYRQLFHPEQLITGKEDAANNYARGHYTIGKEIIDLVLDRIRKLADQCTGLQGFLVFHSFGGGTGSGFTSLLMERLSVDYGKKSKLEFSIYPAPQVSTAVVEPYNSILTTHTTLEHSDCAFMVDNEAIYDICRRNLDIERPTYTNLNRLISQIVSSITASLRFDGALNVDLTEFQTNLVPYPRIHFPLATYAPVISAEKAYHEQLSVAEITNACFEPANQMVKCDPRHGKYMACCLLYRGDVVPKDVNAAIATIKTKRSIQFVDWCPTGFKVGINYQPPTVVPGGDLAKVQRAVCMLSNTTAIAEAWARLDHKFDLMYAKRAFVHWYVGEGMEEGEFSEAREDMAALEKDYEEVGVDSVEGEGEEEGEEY
microtubules polymerised from porcine brain tubulin (GMPCPP-stabilised microtubules and seeds, and dynamic microtubules elongating or nucleated from Atto647N- or Atto647-tubulin) (porcine (endogenous in pig brain)), sequence (chain, as listed by the source, chain 2 of 2): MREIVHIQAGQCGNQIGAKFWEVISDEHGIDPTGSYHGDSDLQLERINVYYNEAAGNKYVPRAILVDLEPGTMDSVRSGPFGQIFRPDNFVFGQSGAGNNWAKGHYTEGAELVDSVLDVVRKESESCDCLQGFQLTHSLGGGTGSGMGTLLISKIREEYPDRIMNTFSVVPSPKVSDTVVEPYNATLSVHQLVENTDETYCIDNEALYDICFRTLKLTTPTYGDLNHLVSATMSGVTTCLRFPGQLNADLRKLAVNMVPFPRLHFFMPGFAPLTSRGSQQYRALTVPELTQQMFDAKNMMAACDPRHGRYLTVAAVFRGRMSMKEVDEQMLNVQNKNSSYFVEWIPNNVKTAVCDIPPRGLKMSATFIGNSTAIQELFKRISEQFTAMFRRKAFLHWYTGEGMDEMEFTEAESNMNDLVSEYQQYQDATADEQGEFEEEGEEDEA

[2] = target: microtubules polymerised from porcine brain tubulin (GMPCPP-stabilised microtubules and seeds, and dynamic microtubules elongating or nucleated from Atto647N- or Atto647-tubulin) (porcine (endogenous in pig brain)) (UniProt P02550); assay: TIRF microscopy; microtubules elongating from surface-immobilized GMPCPP-seeds severed by laser ablation in 40 nM mScarlet-NuMA^FL and 10 µM Atto647N-tubulin; NuMA microscopy buffer, 30°C; new minus and plus ends scored

percent of minus ends of spontaneously nucleated microtubules with strong NuMA accumulation (highest NuMA concentration) [1]: 93% | percent of ablation-generated minus ends with NuMA bound [2]: 83%
Substance: mScarlet-tagged full-length human NuMA, mScarlet-NuMA^FL, Q14980-1 1-2115
